Reference: patent publication US20250059282A1 (University of Texas, published 2025)
Numbering of substitutions follows the chain as printed.

T1: Mouse PD-L2-Fc (mouse, UniProt Q9WUL5 20-219, limits assumed)
T1 construct: also called murine PD-L2; not shown: Fc
T1 sequence (looked up): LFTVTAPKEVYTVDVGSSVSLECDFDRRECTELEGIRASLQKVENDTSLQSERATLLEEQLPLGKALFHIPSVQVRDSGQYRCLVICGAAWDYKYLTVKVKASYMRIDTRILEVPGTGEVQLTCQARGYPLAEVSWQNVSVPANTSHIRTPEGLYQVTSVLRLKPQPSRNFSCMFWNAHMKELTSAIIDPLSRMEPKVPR

T2: Cyno PD-L2-Fc (cynomolgus, UniProt A0A2K5U5Z4 20-220)
T2 construct: also called cynomolgus PD-L2; not shown: Fc
T2 sequence: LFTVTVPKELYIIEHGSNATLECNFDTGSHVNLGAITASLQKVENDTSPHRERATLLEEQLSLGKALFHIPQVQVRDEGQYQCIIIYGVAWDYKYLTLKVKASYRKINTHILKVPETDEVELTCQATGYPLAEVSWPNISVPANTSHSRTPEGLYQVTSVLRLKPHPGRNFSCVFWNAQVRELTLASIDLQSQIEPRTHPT

T3: Human PD-L2-HIS (human, UniProt Q9BQ51 20-220)
T3 construct: also called His-tagged human PD-L2; not shown: His tag
T3 sequence: T2 sequence with A19V, S62P, L67S, I139V, H166P, A178T, Q179H, I194M

T4: human PD-L2 on CHO cells (human, UniProt Q9BQ51 20-273)
T4 sequence: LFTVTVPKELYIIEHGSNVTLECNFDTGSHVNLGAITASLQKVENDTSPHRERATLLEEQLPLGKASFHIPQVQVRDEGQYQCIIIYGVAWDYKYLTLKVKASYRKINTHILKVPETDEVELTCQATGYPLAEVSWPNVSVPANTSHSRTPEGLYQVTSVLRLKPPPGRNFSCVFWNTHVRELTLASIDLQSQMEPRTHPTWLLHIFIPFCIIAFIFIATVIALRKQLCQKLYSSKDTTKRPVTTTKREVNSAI

T5: Human PD-L2-Fc (human, UniProt Q9BQ51 20-220)
T5 construct: also called dimeric PD-L2; PD-L2 (dimeric ligand); not shown: human IgG1 Fc constant region
T5 sequence: T2 sequence with A19V, S62P, L67S, I139V, H166P, A178T, Q179H, I194M

B1: BiPDL4-34 (antibody, V domains shown)
VH: QVQLVESGGGVIQPGRSLRLSCAASGFTFSAYLMHWVRQAPGKGLEWVAAIGYDGMNKYYADSVKGRFTISRDNSKNTLYLQMNSLRAEDTAVYYCARAGIEYSYAYTDYWGQGTLVTVSS
VL: EIVLTQSPGTLSLSPGERATLSCRASQFVYSSDLAWYQQKPGQAPRLLIYGASARAAGIPDRFSGSGSGTDFTLTISRLEPEDFAVYYCMQFGWWPPRTFGGGTKVEIK
notes: Fourth generation, IgG
B2: BiPDL4-14 (antibody, V domains shown)
VH: B1 VH with I12V, S30D, A31E, L33G, A50V, M56L
VL: B1 VL with A54T, A56K, A57T, M90L
notes: Fourth generation, IgG
B3: BiPDL3-14 (antibody, V domains shown)
VH: QVQLQQWGAGLLKPSETLSLTCAVYGGSLSGYPWSWIRQPPGKGLEWIGETDVSGWTDYNPSLKSRVTISVDTSKNQFSLKLSSVTAADTAVYYCARDGRRMGTPSFDIWGQGTMVTVSS
VL: DIQMTQSPSSVSASVGDRVTITCRASQGINSFLAWYQQKPGKAPKLLIYAASSLNSGVPSRFSGSGSGTDFTLTISSLQPEDFATYYCQKAVYFPPTFGGGTKVEIK
notes: IgG; also called ADI-37464; 37464
B4: BiPDL3-13 (antibody, V domains shown)
VH: B3 VH
VL: B3 VL with M4L, N30S, F32W, N55Q, K90Q, A91Y
notes: Third generation, IgG

How the values were obtained:
[1] = target: T6, Mouse PD-L1-Fc (mouse, UniProt Q9EP73 19-239, limits assumed); assay: ForteBio Octet, IgG, avid
T6 construct: also called murine PD-L1; not shown: Fc
T6 sequence (Q9EP73 19-239 limits assumed): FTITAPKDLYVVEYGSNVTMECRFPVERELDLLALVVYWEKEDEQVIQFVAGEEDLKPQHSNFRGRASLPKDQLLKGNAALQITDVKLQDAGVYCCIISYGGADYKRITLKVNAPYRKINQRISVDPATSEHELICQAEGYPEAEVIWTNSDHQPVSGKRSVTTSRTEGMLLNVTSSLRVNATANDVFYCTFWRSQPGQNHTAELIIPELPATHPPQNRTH

[2] = target: T1, Mouse PD-L2-Fc; assay: ForteBio Octet, IgG, avid
[3] = target: T7, Cyno PD-L1-Fc (cynomolgus, UniProt G7PSE7 19-238); assay: ForteBio Octet, IgG, avid
T7 construct: also called cynomolgus PD-L1
T7 sequence (G7PSE7 entry or part of it limits assumed): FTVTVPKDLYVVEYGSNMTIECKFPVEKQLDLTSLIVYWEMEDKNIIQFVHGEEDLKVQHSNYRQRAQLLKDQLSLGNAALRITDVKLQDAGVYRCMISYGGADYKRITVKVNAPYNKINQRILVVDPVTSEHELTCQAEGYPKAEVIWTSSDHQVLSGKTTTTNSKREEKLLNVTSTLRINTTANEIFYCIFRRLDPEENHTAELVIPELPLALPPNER

[4] = target: T2, Cyno PD-L2-Fc; assay: ForteBio Octet, IgG, avid
[5] = target: T6, Mouse PD-L1-Fc; assay: ForteBio, IgG, avid
[6] = target: T1, Mouse PD-L2-Fc; assay: ForteBio, IgG, avid
[7] = target: T7, Cyno PD-L1-Fc; assay: ForteBio, IgG, avid
[8] = target: T2, Cyno PD-L2-Fc; assay: ForteBio, IgG, avid
[9] = target: T3, Human PD-L2-HIS; assay: ForteBio, IgG, monovalent
[10] = target: T8, Human PD-L1-HIS (human, UniProt Q9NZQ7 19-238); assay: ForteBio, IgG, monovalent
T8 construct: also called HIS-tagged monovalent PD-L1; His-tagged human PD-L1; not shown: His tag
T8 sequence (Q9NZQ7 19-238 limits assumed): as the sequence (G7PSE7 entry or part of it limits assumed) above, with T33A, S34A, N62S, Q68R, R82Q, L173F, A185T, I192T, L215H counted along it

[11] = target: T3, Human PD-L2-HIS; assay: ForteBio Octet, IgG, monovalent
[12] = target: T8, Human PD-L1-HIS; assay: ForteBio Octet, IgG; column head says Avid
[13] = target: T8, Human PD-L1-HIS; assay: ForteBio Octet, IgG; column head says Avid; IgG against Human PD-L1-HIS (head says Avid), not Fab against PD-L1-Fc
[14] = target: T4, human PD-L2 on CHO cells; assay: cell-based or functional assay
[15] = target: T9, human PD-L1 on CHO cells (human, UniProt Q9NZQ7 19-290); assay: cell-based or functional assay
T9 sequence (Q9NZQ7 19-290 limits assumed): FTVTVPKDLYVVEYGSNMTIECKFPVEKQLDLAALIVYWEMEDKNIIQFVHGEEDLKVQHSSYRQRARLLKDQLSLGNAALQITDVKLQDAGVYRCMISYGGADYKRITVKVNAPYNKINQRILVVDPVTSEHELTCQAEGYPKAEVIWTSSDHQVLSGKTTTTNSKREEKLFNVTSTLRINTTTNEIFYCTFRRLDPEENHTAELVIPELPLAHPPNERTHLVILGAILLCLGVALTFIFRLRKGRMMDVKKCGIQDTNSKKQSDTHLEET

[16] = target: T4, human PD-L2 on CHO cells; assay: cell-based or functional assay; remark: listed apart in the source
[17] = target: T9, human PD-L1 on CHO cells; assay: cell-based or functional assay; remark: listed apart in the source
[18] = target: T6, Mouse PD-L1-Fc; assay: ForteBio, IgG, avid; remark: listed apart in the source
[19] = target: T1, Mouse PD-L2-Fc; assay: ForteBio, IgG, avid; remark: listed apart in the source
[20] = target: T7, Cyno PD-L1-Fc; assay: ForteBio, IgG, avid; remark: listed apart in the source
[21] = target: T2, Cyno PD-L2-Fc; assay: ForteBio, IgG, avid; remark: listed apart in the source
[22] = target: T3, Human PD-L2-HIS; assay: ForteBio, IgG, monovalent; remark: listed apart in the source
[23] = target: T8, Human PD-L1-HIS; assay: ForteBio, IgG, monovalent; remark: listed apart in the source
[24] = target: T5, Human PD-L2-Fc; assay: ForteBio Octet, IgG, avid
[25] = target: T10, Human PD-L1-Fc (human, UniProt Q9NZQ7 19-238); assay: ForteBio Octet, IgG, avid
T10 construct: also called dimeric PD-L1; PD-L1 (dimeric ligand); not shown: human IgG1 Fc constant region
T10 sequence (Q9NZQ7 19-238 limits assumed): as the sequence (G7PSE7 entry or part of it limits assumed) above, with T33A, S34A, N62S, Q68R, R82Q, L173F, A185T, I192T, L215H counted along it

| Binder | Kd [1] [nM] | Kd [2] [nM] | Kd [3] [nM] | Kd [4] [nM] | Kd [5] [nM] | Kd [6] [nM] | Kd [7] [nM] | Kd [8] [nM] | Kd [9] [nM] | Kd [10] [nM] | Kd [11] [nM] | also measured |
| --- | --- | --- | --- | --- | --- | --- | --- | --- | --- | --- | --- | --- |
| B1 | 0.544 | 5.69 | 0.408 | 0.739 | 0.544 | 5.69 | 0.408 | 0.739 | 0.932 | 6.85 | 0.932 | Kd [12]: 2.17 nM |
| B2 | 0.4 | 7.88 | 0.508 | 0.64 | 0.4 | 7.88 | 0.508 | 0.64 | 0.738 | 2.26 | 0.738 | Kd [13]: 0.692 nM; EC50 (read off the curve); Fold induction of luciferase, Promega: CHO-PD-L1/PD-L2 dual cells with PD-1 Jurkat reporter cells (PD-L1 and PD-L2 not separable) [14]: ~0.3 nM; EC50 (read off the curve); Fold induction of luciferase, Promega: CHO-PD-L1/PD-L2 dual cells with PD-1 Jurkat reporter cells (PD-L1 and PD-L2 not separable) [15]: ~0.3 nM |
| B3 | – | – | – | – | – | – | – | – | – | – | – | EC50 (read off the curve); Luc Activity, Promega CHO-PDL1/PD-L2 dual cells with NFAT-Luc Jurkat T cells (PD-L1 and PD-L2 not separable) [16]: ~2 nM; EC50 (read off the curve); Luc Activity, Promega CHO-PDL1/PD-L2 dual cells with NFAT-Luc Jurkat T cells (PD-L1 and PD-L2 not separable) [17]: ~2 nM; Kd [18]: 2.34 nM; Kd [19]: 0.533 nM; Kd [20]: 0.371 nM; Kd [21]: 0.543 nM; Kd [22]: 0.684 nM; Kd [23]: 3.93 nM |
| B4 | – | 1.22 | 2.34 | 0.688 | – | – | – | – | – | – | – | binding result [1]: no binding (tested: 100 nM antigen); Kd [24]: 0.431 nM; Kd [25]: 3.28 nM |
